Source: patent US20030165919A1, “Method for the analysis of exogenic and endogenic cell activiation based on measuring the aggregation of receptors” (priority 2000, published 2003)

What was measured:
Type in all cases: cell-based
CD11b and CD14 = target: T1, CD11b and CD14 (Homo sapiens, UniProt P08571); assay: FRET flow cytometry: co-assembly of CD11b and CD14 on monocytes; conditions: human monocytes in whole blood, stimulation with the substance alone, 37° C. 15 minutes
T1 construct: endogenous in cells; host or cells: human monocytes in heparinised whole blood (healthy donors and patients)
T1 sequence (P08571 20-345 limits assumed): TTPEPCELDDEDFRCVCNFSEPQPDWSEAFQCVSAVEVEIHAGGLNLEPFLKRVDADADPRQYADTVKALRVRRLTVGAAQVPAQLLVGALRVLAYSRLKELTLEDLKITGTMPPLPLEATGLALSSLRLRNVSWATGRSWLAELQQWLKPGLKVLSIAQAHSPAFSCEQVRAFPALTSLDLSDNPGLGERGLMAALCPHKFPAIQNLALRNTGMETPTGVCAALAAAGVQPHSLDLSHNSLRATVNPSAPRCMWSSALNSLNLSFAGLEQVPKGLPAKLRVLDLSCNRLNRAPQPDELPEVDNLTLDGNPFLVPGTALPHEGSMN
Procedure: (§1) Aliquots […] of whole blood were incubated with the following stimulatory compounds at 37° C. for 15 minutes: LPS of Salmonella minnesota (0.1-10 nM, Mw 10 kDa), ceramide (primarily stearic acid and nervonic acid) and sulfogalactosyl ceramide (SG-cer, […]), both of which tested LPS free in the LAL assay (Cer, 1 nM-5.5 mM), lysophosphatidyl choline (lyso-PC, 10 mM), phorbol-12-myristate-13-acetate (PMA, 1 mM), N-formyl-L-methionyl-L-leucyl-L-phenyl alamine (fMLP, 1 mM), PE, PC, PI and PS liposomes (10 mm) which had been prepared as described above. All reagents were obtained from Sigma. In addition, the cells were stimulated with HPS70 (7 nM), dHSP70 (7 nM) and SG-cer+dHSP70 (40 nM+7 nM). After incubation, the cells were washed with cold PBS containing 0.1% of NaN3. The synthetic LPS antagonist lipid IVa (“compound-406”, 1-400 ng/ml) and lipid A derived from E. coli (1-100 ng/ml) were made available by courtesy of Dr. S. Kusumoto. The cells were pre-incubated with the LPS antagonist at 37° C. for 15 minutes and then stimulated with LPS at the same temperature (without washing).
(§2) Whole blood cells which had been stimulated or washed ex vivo […] were incubated on ice for 15 minutes with saturation concentrations of monoclonal fluorochrom-conjugated or biotinylated antibodies. The monoclonal antibodies CD11a (clone 25.3.1), CD16a (clone 3G8). CD18 (clone 7E4), CD14 (clone RMO52), CD33 (clone My9-RD1). CD81 (clone Js64) were obtained as R-phyco-erythrine (R-PE) conjugates and CD25 (clone B1.49.9) in biotinylated form from Coulter/Immunotech (Krefeld, Germany). CD11b (clone d12), CD11c (clone S-HCL-3), CD36 (clone CB38), CD47 (clone B6H12), CD81 (clone JS-81) and (Cd55 (clone IA10) in biotinylated form and Streptavidin-R-PE were purchased from Becton/Dickinson/Pharningen (Heidelberg, Germany) CD18 (clone IB4) in biontinylated form and CD40 (clone EA-5) as R-PE conjugate were obtained from Alexis (Grünberg, Germany) and CD14 (clones ×8 and Uchml) and CD3 (clone Cris-7) in biotinylated form and Streptavidin-Cy5 (Sa-Cy5) from Dianova (Hamburg, Germany), CD32 (clone C1KM5) and CD64 (clone 10.1) were obtained as R-PE conjugates from Caltag (Burlingame, U.S.A.) and CD91 (clone 8G1) in biotinylated form from Proen (Heidelberg, Germany). A monoclonal anti-TLRA antibody (clone HTA125) was kindly provided by Dr. Kensuke. Since no energy transfer between the antibodies directed against the CD14/CD11a and CD14/CD11c pairs was detectable either on resting or on stimulated cells, these antibody combinations were not characterised further.
Lysis of erythrocytes and washing were carried out as described (Rothe et al., Thromb. Vasc. Biol. 16 (1996), 1437-1447). After the last washing step, the samples were divided and part of each sample incubated with a saturating amount of SA-Cy5 on ice for 15 minutes and washed before measuring.
For energy transfer experiments, […] aliquots of whole blood were treated with cholesterol/methyl cyclodextrine (C/C) (100 mg/ml/4.6 mg/ml) or 2-hydroxypropyl-β-cyclodextrine (0.15 mg/ml) at 37° C. for 30 minutes and then stimulated further with LPS (4 nM) or ceramide (40 nM) as described above. The energy transfer between CD14 and CD11b was measured.
A “FACSCalibur” flow cytometer (Becton Dickinson) equipped with an air-cooled 15 mW argon laser (excitation wavelength 488 nm), a diode laser (excitation wavelength […]) and standard filters [channel 1 (FITC): 530/30 nm band pass filter; channel 2 (R-PE being used as donor dye); 585/47 nm band pass filter; channel 3 (PerCP): pass having a length of >670 nm; and channel 4 (Cy5being used as recipient dye): 661/16 nm bad pass filter] was used. The Cellquest software (Becton Dickinson) was used for the measurements. […] Measurement was conducted without compensation. 50,000 leukocytes were required in the “list” modus, forward scattering (FSC) being used as a trigger signal. […]

[1] = target: T2, receptor cluster comprising CD14 (Homo sapiens, UniProt P08571); assay: FRET with a series of antibody pairs: receptor cluster comprising CD14 on monocytes; conditions: stimulation of the cells as control
T2 construct: endogenous in cells; host or cells: human monocytes in whole blood
T2 sequence (P08571 20-345 limits assumed): T1 sequence (P08571 20-345 limits assumed)
Procedure: as §1
(§3) Whole blood cells which had been stimulated or washed ex vivo […] were incubated on ice for 15 minutes with saturation concentrations of monoclonal fluorochrom-conjugated or biotinylated antibodies. The monoclonal antibodies CD11a (clone 25.3.1), CD16a (clone 3G8). […]

CD36/CD14 (×8) = target: T3, CD36/CD14 (×8) (Homo sapiens, UniProt P08571); assay: FRET co-assembly of CD36 with CD14 on monocytes; conditions: LPS 4 nM, ceramide 40 nM, LTA 1 μg/ml, HSP70 7 nM; mean ± SD of 10 experiments; >5% = positive transfer
T3 construct: endogenous in cells; host or cells: human monocytes in whole blood
T3 sequence (P08571 20-345 limits assumed): T1 sequence (P08571 20-345 limits assumed)
Procedure: as §1, §3

CD81/CD14 (×8) = target: T4, CD81/CD14 (×8) (Homo sapiens, UniProt P08571); assay: FRET co-assembly of CD81 with CD14 on monocytes; conditions: LPS 4 nM, ceramide 40 nM, LTA 1 μg/ml, HSP70 7 nM, mean ± SD of 10 experiments
T4 construct: endogenous in cells; host or cells: human monocytes in whole blood (donors; also sepsis and CAD patients)
T4 sequence (P08571 20-345 limits assumed): T1 sequence (P08571 20-345 limits assumed)
Procedure: as §1
as §2, with “further. […]” for “further.”

CD64/CD14 (Uchm1) = target: T5, CD64/CD14 (Uchm1) (Homo sapiens, UniProt P08571); assay: FRET co-assembly of CD64 with CD14 on monocytes; conditions: LPS 4 nM, ceramide 40 nM, LTA 1 μg/ml, HSP70 7 nM; mean ± SD of 10 experiments; >5% = positive transfer
T5 construct: endogenous in cells; host or cells: human monocytes in whole blood
T5 sequence (P08571 20-345 limits assumed): T1 sequence (P08571 20-345 limits assumed)
Procedure: as §1, §3

CD55/CD14 (Uchm1) = target: T6, CD55/CD14 (Uchm1) (Homo sapiens, UniProt P08571); assay: FRET co-assembly of CD55 with CD14 on monocytes; conditions: LPS 4 nM, ceramide 40 nM, LTA 1 μg/ml, HSP70 7 nM; mean ± SD of 10 experiments; >5% = positive transfer
T6 construct: endogenous in cells; host or cells: human monocytes in whole blood
T6 sequence (P08571 20-345 limits assumed): T1 sequence (P08571 20-345 limits assumed)
Procedure: as §1, §3

TLR-4/CD14 (×8) = target: T7, TLR-4/CD14 (×8) (Homo sapiens, UniProt P08571); assay: FRET co-assembly of TLR-4 with CD14 on monocytes; conditions: LPS 4 nM, ceramide 40 nM, LTA 1 μg/ml, HSP70 7 nM; mean ± SD of 10 experiments; >5% = positive transfer
T7 construct: endogenous in cells; host or cells: human monocytes in whole blood
T7 sequence (P08571 20-345 limits assumed): T1 sequence (P08571 20-345 limits assumed)
Procedure: as §1, §3

CD32/CD14 (Uchm1) = target: T8, CD32/CD14 (Uchm1) (Homo sapiens, UniProt P08571); assay: FRET co-assembly of CD32 with CD14 on monocytes; conditions: LPS 4 nM, ceramide 40 nM, LTA 1 μg/ml, HSP70 7 nM; mean ± SD of 10 experiments; >5% = positive transfer
T8 construct: endogenous in cells; host or cells: human monocytes in whole blood
T8 sequence (P08571 20-345 limits assumed): T1 sequence (P08571 20-345 limits assumed)
Procedure: as §1, §3

CD18(7E4)/CD14 (×8) = target: T9, CD18(7E4)/CD14 (×8) (Homo sapiens, UniProt P08571); assay: FRET co-assembly of CD18 with CD14 on monocytes; conditions: LPS 4 nM, ceramide 40 nM, LTA 1 μg/ml, HSP70 7 nM; mean ± SD of 10 experiments; >5% = positive transfer
T9 construct: endogenous in cells; host or cells: human monocytes in whole blood
T9 sequence (P08571 20-345 limits assumed): T1 sequence (P08571 20-345 limits assumed)
Procedure: as §1, §3

| Compound | co-assembly of CD11b and CD14 (energy transfer between monoclonal antibodies) (CD11b and CD14) | energy transfer between any of the antibody pairs [1] | energy transfer CD36/CD14 (×8) (CD36/CD14 (×8)) [%] | energy transfer CD81 (JS-81)/CD14 (×8) (CD81/CD14 (×8); CD81 clone JS-81) [%] | energy transfer CD81 (Js64)/CD14 (×8) (CD81/CD14 (×8); CD81 clone Js64) [%] | energy transfer CD64/CD14 (Uchm1) (CD64/CD14 (Uchm1)) [%] | energy transfer CD55/CD14 (Uchm1) (CD55/CD14 (Uchm1)) [%] | energy transfer TLR-4/CD14 (×8) (TLR-4/CD14 (×8)) [%] | energy transfer CD32/CD14 (Uchm1) (CD32/CD14 (Uchm1)) [%] | energy transfer CD18(7E4)/CD14 (×8) (CD18(7E4)/CD14 (×8)) [%] |
| --- | --- | --- | --- | --- | --- | --- | --- | --- | --- | --- |
| CSCC[C@H](NC=O)C(=O)N[C@@H](CC(C)C)C(=O)N[C@@H](Cc1ccccc1)C(=O)O [fMLP, N-formyl-L-methionyl-L-leucyl-L-phenyl alamine] | neither fMLP or PMA showed any effect | did not result in any significant energy transfer | – | – | – | – | – | – | – | – |
| HSP70: Heat shock protein 70 obtained from Stressgen | induces clustering of CD11b and CD14 | – | 8.2 ± 1.8 | 1.0 ± 0.1 | 3.8 ± 2.5 | 10.1 ± 1.5 | 6.0 ± 0.5 | 5.4 ± 0.6 | 5.3 ± 2.1 | 6.0 ± 2.1 |
| dHSP70: HSP70 delipidated in ethanol/diethyl ether | does not induce any receptor complex | – | – | – | – | – | – | – | – | – |
